What all share (assay type): in vivo, BALB/c mice
The nature of assay [1]: immunity organ weight test (thymus gland index, spleen index). Conditions: IFN-γ and IL-2 groups 3×10^5 IU/kg/day, X ± SD. An outline of the steps: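 Organs (thymus, spleen, liver) were weighed one day after the last of 15 daily i.p. doses given in saline. Indices are expressed as percentage of body weight, with α derived from body weight relative to combined liver and spleen weight.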

Assay [2] relates to anti-SRBC antibody. The experiment in a line: Sheep Red Blood Cell (SRBC) hemolysis test, anti-SRBC antibody formation. Conditions: SRBC on day 12, IFN-γ and IL-2 groups 3×10^5 IU/kg/day, X ± SD. An outline of the steps: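 Hemolytic antibody read-out: day-16 mouse serum (1:500) incubated 10 min at 37 °C with 2% SRBC and Cavy-serum complement, supernatant treated with Drabkin solution, OD540nm measured. Animals were SRBC-immunized i.p. (0.2 ml) on day 12 during dosing.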

The subject of assay [3] is T lymphocyte. The experiment in a line: T lymphocyte transformation in mice with ascitic fluid type liver cancer H22. The settings on record: 3 × 10^5 IU/kg i.p. once per day. As for the experimental part:
Healthy BALB/c mice were randomized into peptide group, rmIFN-γ group, rhIL-2 group, and saline group, 15 mice per group, and prepared into H22 carrying mice model as described in section Method 3. After implantation of the cancer cells, the test substances were administered for 15 days, the mice were killed by cervical dislocation. The spleen was isolated aseptically and manually dispersed in cold D-Hank's solution using an injection needle. The dispersed cell suspension was further sieved through a 100-gauge 150 μm diameter stainless steel sieve. After centrifugation at 200 g for 10 minutes, the supernatant was discarded. The cell pellet was re-suspended in 10 volume of Tris-NH4Cl buffer and then kept standing still for 10 minutes at room temperature. The suspended cells were collected by centrifugation at 150 g for 10 minutes. The cells were washed 2-4 times with cold D-Hank's solution by re-suspending and collecting by centrifugation with condition as described above. The washed cells were then diluted to the desired cell densities by RPMI-1640 culture medium, containing 10% fetal bovine serum.
Spleen cells of density 1×10^6/ml were placed onto a 96 wells cell culture plate, 100 μl/well, three parallel wells each of the assay sample and control sample per mouse. To the assay wells, 100 μl/well ConA of 100 μg/ml in RPMI-1640 was added, and 100 μl/well plain RPMI-1640 was used for the controls. The cells were incubated for 66 hrs at 37° C., 5% CO2. The cells were then pelleted by centrifugation at 150 g for 10 minutes.
50 μl/well MTT of 1 mg/ml in RPMI-1640 was added to the cell pellet and the cells re-suspended by shaking for 2 minutes. The incubation was continued for 4 hours. The supernatant was discarded after centrifugation at 150 g for 10 minutes. 120 μl 40 mM HCl-2-propanol was added to the cell pellet and shaken for 3 minutes. Use an ELISA reader to obtain OD570nm of each well referenced at 630 nm.
Each mouse formed three assay wells and three control wells. The Stimulation Index (SI) of each mouse was obtained by first deriving the average OD of the three parallel wells, then dividing the value of the assay wells by the control wells.

For assay [4], the system named is NK cell. The experiment in a line: NK cell cytotoxicity activity test (YAC-1 target cells, MTT) on spleen cells of treated mice. Conditions: IFN-γ and IL-2 groups 3×10^5 IU/kg/day, X ± SD. In a few lines:
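Mice (ten per group) dosed i.p. once daily for 15 days in 0.5 ml saline; spleens taken the next day, erythrocytes lysed with Tris-NH4Cl. Spleen cells (4×10^6/ml) mixed with YAC-1 targets (1×10^5/ml) in triplicate per mouse. Viability by MTT, 4 h at 37° C., OD570nm referenced at 630 nm.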

Where [5] appears, read: peptide 0.5 μg/kg/day i.p. 15 days.
Where [6] appears, read: peptide 5 μg/kg/day i.p. 15 days.
Where [7] appears, read: peptide 50 μg/kg/day i.p. 15 days.
[8] abbreviates: peptide 500 μg/kg/day i.p. 15 days.

B1: IFN-γ: recombinant mouse interferon-γ, Beijing Biotech Inc.; positive control immunostimulant (protein, UniProt P01580 23-155, looked up)
Interferon gamma: HGTVIESLESLNNYFNSSGIDVEEKSLFLDIWRNWQKDGDMKILQSQIISFYLRLFEVLKDNQAISNNISVIESHLITTFFSNSKAKKDAFMSIAKFEVNNPQVQRQAFNELIRVVHQLLPESSLRKRKRSRC
As for B1, the “weight of spleen (spleen index)” value in assay [1] (setting [5]) and in assay [1] (setting [7]) was 0.50 ± 0.04% each time. Besides, the “weight of thymus gland (thymus gland index)” value in assay [1] (setting [5]), in assay [1] (setting [6]), in assay [1] (setting [7]) and in assay [1] (setting [8]) was 0.15 ± 0.04% in each case. The “anti-SRBC antibody formation (sample serum index)” value in assay [2] (setting [5]), in assay [2] (setting [6]), in assay [2] (setting [7]) and in assay [2] (setting [8]) was 37 ± 10 Unit in each case. In addition, the Stimulation index in assay [3] was 1.27 ± 0.14. In addition, the “NK cell cytotoxic activity (NK cell activity index)” value in assay [4] (setting [5]) turned out to be 72 ± 9 %; in assay [4] (setting [6]), 80 ± 8 %; in assay [4] (setting [7]), 73 ± 10 %; in assay [4] (setting [8]), 77 ± 8 %.
